The values that follow come from patent publication US20200123499A1 (MIT, published 2020).

The target of the assay is T1, DPY-22 PQ-rich domain (C. elegans, UniProt Q20497 2142-3498, limits assumed).
T1 construct: domain: PQ-rich domain; Expressed in yeast from a Clontech two-hybrid bait or prey plasmid, so fused to a Gal4 BD or AD; also called C-terminal PQ-rich domain of DPY-22; MED12/DPY22
T1 sequence (looked up): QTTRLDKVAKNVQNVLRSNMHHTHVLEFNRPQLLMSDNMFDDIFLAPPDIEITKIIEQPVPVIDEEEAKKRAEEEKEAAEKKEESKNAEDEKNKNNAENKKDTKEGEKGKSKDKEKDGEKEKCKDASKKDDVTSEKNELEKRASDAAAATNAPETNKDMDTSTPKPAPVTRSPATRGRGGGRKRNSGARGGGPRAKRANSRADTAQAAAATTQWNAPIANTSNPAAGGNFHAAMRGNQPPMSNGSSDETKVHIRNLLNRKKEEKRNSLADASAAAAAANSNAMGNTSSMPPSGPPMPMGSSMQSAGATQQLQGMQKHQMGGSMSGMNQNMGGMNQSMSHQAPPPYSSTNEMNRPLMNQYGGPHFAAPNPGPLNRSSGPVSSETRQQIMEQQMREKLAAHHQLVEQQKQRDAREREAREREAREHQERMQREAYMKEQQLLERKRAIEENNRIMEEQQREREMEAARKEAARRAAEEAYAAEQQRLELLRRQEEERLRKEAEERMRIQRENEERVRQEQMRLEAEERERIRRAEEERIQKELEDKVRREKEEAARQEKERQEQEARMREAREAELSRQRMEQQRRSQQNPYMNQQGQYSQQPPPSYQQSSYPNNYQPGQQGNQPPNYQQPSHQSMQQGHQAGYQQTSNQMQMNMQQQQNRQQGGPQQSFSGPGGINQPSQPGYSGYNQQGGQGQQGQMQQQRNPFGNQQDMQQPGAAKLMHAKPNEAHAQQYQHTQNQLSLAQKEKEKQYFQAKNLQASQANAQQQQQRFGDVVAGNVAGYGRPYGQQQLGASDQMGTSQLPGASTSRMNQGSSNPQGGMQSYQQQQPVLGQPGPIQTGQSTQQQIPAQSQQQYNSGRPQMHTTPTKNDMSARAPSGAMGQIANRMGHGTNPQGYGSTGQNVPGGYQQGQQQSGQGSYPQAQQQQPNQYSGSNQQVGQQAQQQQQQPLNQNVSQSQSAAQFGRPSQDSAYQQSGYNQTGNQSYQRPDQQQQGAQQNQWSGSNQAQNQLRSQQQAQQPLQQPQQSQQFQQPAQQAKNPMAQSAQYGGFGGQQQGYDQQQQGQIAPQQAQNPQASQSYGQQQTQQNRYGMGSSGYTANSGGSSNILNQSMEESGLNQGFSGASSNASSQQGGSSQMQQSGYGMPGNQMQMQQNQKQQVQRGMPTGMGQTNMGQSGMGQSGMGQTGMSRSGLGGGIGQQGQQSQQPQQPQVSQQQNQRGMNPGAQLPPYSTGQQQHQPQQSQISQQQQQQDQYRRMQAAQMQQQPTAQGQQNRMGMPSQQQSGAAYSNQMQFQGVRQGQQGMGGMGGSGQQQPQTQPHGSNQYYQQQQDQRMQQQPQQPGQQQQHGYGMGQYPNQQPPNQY
Kind of assay: yeast two-hybrid. As to the method:
The yeast two-hybrid assay was performed following the manufacturer's protocol (Clontech). Briefly, fresh Yeast Gold colonies (<1 week old) were cultured in YPD liquid medium at 30° C. to the O.D.600 of 0.5, harvested, washed, and resuspended in 1.1×TE/LiAc. 100 ng of bait and prey plasmids were mixed with […] of denatured salmon sperm carrier DNA and were transformed into competent yeast cells in the presence of 1×PEG/LiAc. The cell mix was then plated on both -Leu-Trp and -Leu-Trp-His-Ade dropout plates and was allowed to grow and 30° C. for 2-3 days. Single colonies that grew on the double and quadruple dropout plates were resuspended in H2O and respotted to fresh dropout plates, which were grown at 30° C. for 2 days. Images of the respotted plates were captured using a Canon Powershot A590 digital camera (Canon) and processed by Photoshop CS4 software (Adobe).
Two let-19 alleles contain missense mutations, and all five of the dpy-22 alleles contain nonsense mutations that truncate the C-terminal PQ-rich domain (FIG. 3C). In vertebrates, Med12 interacts with transcription factors through the PQ-rich domain to promote gene expression and tissue development (37-41). To determine if Mediator might specifically promote I4 neurogenesis by interacting with bHLH proneural factors, we performed a yeast two-hybrid assay. […]

B1: HLH-3 (other)
chain: MTASTSSTPSTSTKIPSSSKSSVTKQTKQKRNERERKRVDQVNQGFVLLQERVPKAAGNKAKLSKVETLREAARYIQELQKQLGMSSTSFHNSMPADFPTPEQSPVYPQSVCSMMAQTPSPSYTSPYYPPPQMMSSNQHDMSSHYYQESSSSSASTSGDHHSFYSHTETY
notes: Yeast two-hybrid fusion (Gal4 BD or AD); also called ASCL1/HLH3; C. elegans homolog of Ascl1/Mash1
In the case of B1, the binding result is “no binding”.
